This is an account of results in publication PMC11886768 (2025).

In one assay the target is AD-COP1 (UniProt P43254). Put plainly: yeast three-hybrid (Y3H) competition assay (BD-HY5, AD-COP1). The note with it: read off a plot.
In a further assay the target is E-COP1 (UniProt P43254). As to the kind of experiment: mammalian three-hybrid (M3H) assay, GFP co-expressed as control third protein. Particulars: CHO-K1 cells, 24 h, parent: est. 150, read off a plot.
E-COP1, sequence (P43254 whole entry): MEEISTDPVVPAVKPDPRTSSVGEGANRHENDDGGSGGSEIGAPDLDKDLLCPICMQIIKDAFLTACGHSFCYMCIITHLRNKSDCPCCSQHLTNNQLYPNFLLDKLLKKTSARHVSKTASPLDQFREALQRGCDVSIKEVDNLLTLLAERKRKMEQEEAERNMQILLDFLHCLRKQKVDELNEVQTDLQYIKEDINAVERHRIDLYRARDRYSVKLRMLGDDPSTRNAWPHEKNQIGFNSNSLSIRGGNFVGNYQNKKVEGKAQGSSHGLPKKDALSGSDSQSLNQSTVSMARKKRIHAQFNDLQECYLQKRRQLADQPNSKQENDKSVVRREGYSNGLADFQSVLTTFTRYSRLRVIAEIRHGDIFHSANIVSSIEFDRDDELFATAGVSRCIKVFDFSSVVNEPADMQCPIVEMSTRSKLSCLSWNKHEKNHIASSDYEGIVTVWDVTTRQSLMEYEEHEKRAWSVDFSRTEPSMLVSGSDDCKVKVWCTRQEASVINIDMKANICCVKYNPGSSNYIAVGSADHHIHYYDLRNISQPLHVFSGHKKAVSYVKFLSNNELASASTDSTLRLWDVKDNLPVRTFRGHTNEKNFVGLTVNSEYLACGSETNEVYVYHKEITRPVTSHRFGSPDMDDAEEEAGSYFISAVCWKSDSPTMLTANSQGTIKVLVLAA

AD-COP1, sequence (P43254 whole entry): as above

With “CCT1 (yeast three-hybrid 'bridge protein') V548A; P549A”, the other: COP1-HY5 interaction signal (β-galactosidase activity) with the CCT1 variant as bridge protein was determined as 6.9 Miller units in the assay with AD-COP1 (1 day in darkness, followed by exposure to 50 μmol m−2 s−1 blue light for 1 day, no-bridge control est. 5.7, higher signal = less displacement of HY5 by the …, parent: est. 1.7) and 7.8 Miller units with AD-COP1 (darkness for 2 days, no-bridge control est. 8.5, higher signal = less displacement of HY5 by the CCT1 variant, parent: est. 3.1).
As to “HY5 fused to the herpes simplex virus-derived transactivation domain (VP16) (from UniProt O24646) HY5-VPAA (VP motif to AA; positions not printed)”, the response (Au (SEAP/sNLuc)) with E-COP1 (blue light (10 μmol m−2 s−1)) turned out to be 7; in the assay with E-COP1 (darkness), 5.
